We go through one substance from US20030013173A1.

Assay [1] has as its target soluble β4Gal-T2 (amino acid residues 31-372 of human UDP-galactose: β-N-acetylglucosamine β-1,4-galactosyltransferase, β4Gal-T2) (human) (UniProt O60909). Put plainly: cell-based or functional assay.
Assay [2] concerns the target Bovine milk β1,4Gal-transferase (Sigma), mainly representing β4Gal-T1 (bovine) (UniProt P08037). Description: cell-based or functional assay.

Sequence of soluble β4Gal-T2 (amino acid residues 31-372 of human UDP-galactose: β-N-acetylglucosamine β-1,4-galactosyltransferase, β4Gal-T2) (human) (O60909 31-372): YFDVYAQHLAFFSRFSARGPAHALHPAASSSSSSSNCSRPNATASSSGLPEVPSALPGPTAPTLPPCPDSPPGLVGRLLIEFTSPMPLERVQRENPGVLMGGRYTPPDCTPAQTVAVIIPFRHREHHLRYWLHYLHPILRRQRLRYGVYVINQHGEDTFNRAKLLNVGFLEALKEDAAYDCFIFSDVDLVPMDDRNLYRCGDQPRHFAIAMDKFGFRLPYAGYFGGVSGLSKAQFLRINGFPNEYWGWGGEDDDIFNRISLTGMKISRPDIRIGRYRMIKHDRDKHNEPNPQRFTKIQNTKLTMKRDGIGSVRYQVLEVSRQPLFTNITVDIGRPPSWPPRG
Sequence of Bovine milk β1,4Gal-transferase (Sigma), mainly representing β4Gal-T1 (bovine) (P08037 78-402 limits assumed): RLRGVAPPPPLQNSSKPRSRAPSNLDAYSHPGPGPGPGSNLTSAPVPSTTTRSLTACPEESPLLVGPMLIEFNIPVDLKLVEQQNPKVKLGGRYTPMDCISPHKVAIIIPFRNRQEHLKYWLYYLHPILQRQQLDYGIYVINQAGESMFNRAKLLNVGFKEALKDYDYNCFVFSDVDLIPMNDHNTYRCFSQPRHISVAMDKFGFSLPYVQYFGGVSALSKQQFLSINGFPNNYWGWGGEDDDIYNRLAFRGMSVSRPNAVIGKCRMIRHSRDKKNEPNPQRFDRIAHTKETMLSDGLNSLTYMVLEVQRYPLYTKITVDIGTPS

Turning to α-lactalbumin, the concentration of a-lactalbumin to achieve maximum activity with Glc came out at 0.4 mg/mL in assay [1] and 0.1 mg/mL in assay [2].
